From publication PMC3439491, “Characterization of an AGAMOUS-like MADS Box Protein, a Probable Constituent of Flowering and Fruit Ripening Regulatory System in Banana” come the findings set out here.

Data set [1] has as its target T1, MA-MADS5 full length (A) (Musa acuminata (AAA group, Cavendish …, UniProt E9NW24 1-243)). Description: EMSA; EMSA with 2 ug recombinant protein or 15 ug nuclear extract, buffer by reference to earlier work; circularization pre-incubation: 60 mM KCl, 8 mM HEPES pH 7.9. The note with it: protein: recombinant, tags: 6xHis (pQE30), chain copies: 2, blunt. (A gel shift assay detects complexes by their altered migration in electrophoresis.)

Data set [2] addresses T1, MA-MADS5 full length (A). Description: EMSA; supershifted by anti-MA-MADS5; EMSA with 2 ug recombinant protein or 15 ug nuclear extract, buffer by reference to earlier work; circularization pre-incubation: 60 mM KCl, 8 mM HEPES pH 7.9. The note with it: protein: recombinant; tags: 6xHis (pQE30); chain copies: 2; label: 32P 5' end; blunt.
Data set [3] deals with MA-MADS5 G (C-terminal) (Musa acuminata (AAA group, Cavendish …, UniProt E9NW24 184-243)). In words: EMSA; EMSA with 2 ug recombinant protein or 15 ug nuclear extract, buffer by reference to earlier work; circularization pre-incubation: 60 mM KCl, 8 mM HEPES pH 7.9. The note with it: protein: recombinant; tags: 6xHis (pQE30); label: 32P; blunt.
Data set [4] has as its target MA-MADS5 D (MADS+I+K) (Musa acuminata (AAA group, Cavendish …, UniProt E9NW24 1-183)). The description is as above. The note with it: protein: recombinant; tags: 6xHis (pQE30); chain copies: 2; label: 32P; blunt.
The target of data set [5] is MA-MADS5 C (MADS+I) (Musa acuminata (AAA group, Cavendish …, UniProt E9NW24 1-73)). Described as above. The settings on record: protein: recombinant; tags: 6xHis (pQE30); chain copies: 2; label: 32P; blunt.
The target of data set [6] is MA-MADS5 F (K+C) (Musa acuminata (AAA group, Cavendish …, UniProt E9NW24 74-243)). Described as above. The settings on record: protein: recombinant; tags: 6xHis (pQE30); label: 32P; blunt.
Data set [7] deals with MA-MADS5 E (I+K+C) (Musa acuminata (AAA group, Cavendish …, UniProt E9NW24 61-243)). The description is as above. The settings on record: protein: recombinant; tags: 6xHis (pQE30); chain copies: 2; label: 32P; blunt.
Data set [8] concerns the target MA-MADS5 full length (A);MA-MADS5 C (MADS+I) (Musa acuminata (AAA group, Cavendish …, UniProt E9NW24;E9NW24 1-243;1-73, |)). Description: EMSA; intermediate-mobility dimer; EMSA with 2 ug recombinant protein or 15 ug nuclear extract, buffer by reference to earlier work; circularization pre-incubation: 60 mM KCl, 8 mM HEPES pH 7.9. The note with it: protein: recombinant;recombinant; tags: 6xHis (pQE30);6xHis (pQE30); copies: 1;1; label: 32P; blunt.

The target in data set [9] is MA-MADS5 C (MADS+I);MA-MADS5 D (MADS+I+K) (Musa acuminata (AAA group, Cavendish …, UniProt E9NW24;E9NW24 1-73;1-183, |)). Described as above. The settings on record: protein: recombinant;recombinant; tags: 6xHis (pQE30);6xHis (pQE30); copies: 1;1; label: 32P; blunt.
Data set [10] has as its target MA-MADS5 full length (A);MA-MADS5 D (MADS+I+K) (Musa acuminata (AAA group, Cavendish …, UniProt E9NW24;E9NW24 1-243;1-183, |)). The data set is described as above. The settings on record: protein: recombinant;recombinant; tags: 6xHis (pQE30);6xHis (pQE30); copies: 1;1; label: 32P; blunt.

T1 sequence (E9NW24 entry or part of it): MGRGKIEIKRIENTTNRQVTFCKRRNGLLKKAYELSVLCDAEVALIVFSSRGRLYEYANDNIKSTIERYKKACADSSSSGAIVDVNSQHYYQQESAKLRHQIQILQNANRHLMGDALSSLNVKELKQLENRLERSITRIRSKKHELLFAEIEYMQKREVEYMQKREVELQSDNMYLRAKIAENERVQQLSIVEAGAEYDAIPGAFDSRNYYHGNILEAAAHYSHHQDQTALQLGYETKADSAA
Chain of MA-MADS5 G (C-terminal) (Musa acuminata (E9NW24 entry or part of it): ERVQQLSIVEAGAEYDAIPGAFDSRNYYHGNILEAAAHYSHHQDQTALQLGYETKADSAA
Chain of MA-MADS5 C (MADS+I);MA-MADS5 D (MADS+I+K) (Musa acuminata (chain, as listed by the source |, chain 1 of 2): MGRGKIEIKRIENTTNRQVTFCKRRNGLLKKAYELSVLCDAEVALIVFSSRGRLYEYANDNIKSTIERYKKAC
Chain of MA-MADS5 C (MADS+I);MA-MADS5 D (MADS+I+K) (Musa acuminata (chain, as listed by the source |, chain 2 of 2): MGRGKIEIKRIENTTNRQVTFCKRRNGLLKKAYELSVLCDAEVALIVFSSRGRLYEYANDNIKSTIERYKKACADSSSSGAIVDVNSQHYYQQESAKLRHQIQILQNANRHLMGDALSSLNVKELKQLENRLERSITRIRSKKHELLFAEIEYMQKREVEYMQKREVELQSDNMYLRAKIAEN
Chain of MA-MADS5 E (I+K+C) (Musa acuminata (E9NW24 entry or part of it): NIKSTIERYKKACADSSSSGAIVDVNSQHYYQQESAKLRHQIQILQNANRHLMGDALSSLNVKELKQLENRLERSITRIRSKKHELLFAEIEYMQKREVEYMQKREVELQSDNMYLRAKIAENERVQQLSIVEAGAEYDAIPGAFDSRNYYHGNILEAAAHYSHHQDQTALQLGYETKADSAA
Chain of MA-MADS5 F (K+C) (Musa acuminata (E9NW24 entry or part of it): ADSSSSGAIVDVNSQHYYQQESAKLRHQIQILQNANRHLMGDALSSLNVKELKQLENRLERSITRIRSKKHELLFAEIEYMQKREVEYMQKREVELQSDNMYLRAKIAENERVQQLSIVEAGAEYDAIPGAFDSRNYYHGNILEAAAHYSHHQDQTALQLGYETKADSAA

B1: CArG motif 7 (MA-EXP) (dsDNA)
DNA 1: AAGCACGCATATTTGTGCTGCA
DNA 2: TGCAGCACAAATATGCGTGCTT
Turning to B1, the binding result in data set [1] (label: 32P 5' end) is recorded as “binds”.

B2: CArG motif 1 (MA-SPS) (dsDNA)
DNA 1: TTGGATTCTTATATGTCACGAA
DNA 2: TTCGTGACATATAAGAATCCAA
B2: in data set [2], the binding result was “binds”.

B3: CArG motif 5 (MA-ACO1) (dsDNA)
DNA 1: GAGGTTGGCAATTTGTCACTAC
DNA 2: GTAGTGACAAATTGCCAACCTC
In the case of B3, the binding result in [1] (label: 32P 5' end) is listed as “binds”.

B4: CArG motif 4 (MA-ACS1) (dsDNA)
DNA 1: GATCATGCTTTTATTGTTTCTT
DNA 2: AAGAAACAATAAAAGCATGATC
Take B4: in [1] (label: 32P 5' end), the binding result is given as “no binding”.

B5: CArG motif 8 (MA-LEC) (dsDNA)
DNA 1: CTGGTATCTATTTATGAAATCT
DNA 2: AGATTTCATAAATAGATACCAG
For the molecule B5, the binding result in [1] (label: 32P 5' end) is “binds”.

B6: AGAMOUS element 1 CArG-box (A probe) (dsDNA)
DNA 1: ACTGAAGCTTTCCATTAATGGGAATGACGCACAATCCCAC
DNA 2: GTGGGATTGTGCGTCATTCCCATTAATGGAAAGCTTCAGT
Consider B6, for which the binding result in data set [1] (label: 32P) is listed as “binds”; in data set [3], “no binding”; in data set [4] it was “binds”; in data set [5], “binds”; in [6], “no binding”; in data set [7], “no binding”. Besides, the binding result in data set [8], in [9] and in data set [10] was “binds” each time.

B7: AGAMOUS element m1 (Am probe, CArGm) (dsDNA)
DNA 1: ACTGAAGCTTTCCATGCATGGGAATGACGCACAATCCCAC
DNA 2: GTGGGATTGTGCGTCATTCCCATGCATGGAAAGCTTCAGT
For the molecule B7, the binding result in data set [1] (label: 32P or unlabeled) was “no binding”.

B8: CArG motif 9 (MA-LEC) (dsDNA)
DNA 1: ATAAATTCTTAAAAGATCCTAG
DNA 2: CTAGGATCTTTTAAGAATTTAT
For the molecule B8, in [1] (label: 32P 5' end), the binding result is “no binding”.

B9: CArG motif 3 (MA-ACS1) (dsDNA)
DNA 1: GGGTCAACTATAATTGCCTTCC
DNA 2: GGAAGGCAATTATAGTTGACCC
B9: the binding result in data set [1] (label: 32P 5' end) is “no binding”.

B10: CArG motif 2 (MA-ACS1) (dsDNA)
DNA 1: ACACCCCATAAATTTGATCTTC
DNA 2: GAAGATCAAATTTATGGGGTGT
Take B10: in data set [1] (label: 32P 5' end), the binding result was “binds”.

B11: CArG motif 6 (MA-ACO1) (dsDNA)
DNA 1: GAACGCCTATAAATTGCCTGGT
DNA 2: ACCAGGCAATTTATAGGCGTTC
With B11, in data set [1] (label: 32P 5' end), the binding result is given as “no binding”.
